One molecule from article PMC7749166 (Communications Biology, 2020) can be followed below.

The target of the assay is T1, C5aR^D282A (Homo sapiens, UniProt P21730, D282A).
T1 construct: Flag (N); His8 (C); made in house; host or cells: HEK-293S cells (BacMam baculovirus)
T1 sequence (P21730 1-350 D282A): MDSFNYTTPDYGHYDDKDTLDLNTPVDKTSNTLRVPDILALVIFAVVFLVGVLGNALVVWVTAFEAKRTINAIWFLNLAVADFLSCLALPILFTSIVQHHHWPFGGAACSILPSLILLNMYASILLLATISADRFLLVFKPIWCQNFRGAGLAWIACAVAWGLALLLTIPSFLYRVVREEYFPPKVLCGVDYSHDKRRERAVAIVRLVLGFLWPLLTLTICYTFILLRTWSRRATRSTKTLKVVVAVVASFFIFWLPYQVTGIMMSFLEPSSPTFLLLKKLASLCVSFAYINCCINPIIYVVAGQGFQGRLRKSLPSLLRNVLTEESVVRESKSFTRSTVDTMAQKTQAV
Briefly: 35S-GTPγS binding assay, D282A mutant. The class given is biochemical. The conditions noted are these: increased concentration of C5a, Fig. S7. As to the method: Mutant variants (D282A, D282N, and R175V/Y258V) were generated based on the wtC5aR construct and fully sequenced. Mutant variants were expressed following the same method as for wtC5aR except for some modifications. HEK-293S cells expressing each mutant were pelleted by centrifugation and resuspended in 20 ml buffer containing 20 mM HEPES pH 7.5, 100 mM NaCl, 0.2 μg ml^−1 leupeptin, and 150 μg ml^−1 benzamidine. After 20 min incubation at 25 °C, 20 ml 2X solubilization buffer containing 20 mM HEPES pH 7.5, 100 mM NaCl, 1% dodecyl-maltoside (DDM), 0.2% cholesterol hemisuccinate (CHS), 20% glycerol, 0.2 μg ml^−1 leupeptin, 150 μg ml^−1 benzamidine, and 5 U Salt Active Nuclease (Sigma) was added. Cell membranes were solubilized for 1.5 h at 4 °C. […]
For the ^35S-GTPγS binding assays, the membrane of HEK293S GnTI^− cells expressing wtC5aR (~200 µg ml^−1) or mutant variants was incubated with 200 nM purified Gi protein for 30 min on ice in buffer containing 20 mM HEPES pH 7.5, 100 mM NaCl, 5 mM MgCl2, 3 μg ml^−1 BSA, 0.1 μM TCEP, and 5 μM GDP to get the receptor and Gi complex. […] The radiation of bound ^35S-GTPγS was measured on a Beckman LS6500 scintillation counter to determine the binding of ^35S-GTPγS to Gi induced by C5aR activation. […]

B1: C5a: C5a, a large 74-amino acid glycoprotein; endogenous ligand of C5aR (His6-tag at N-terminal end for AFM tips) (protein)
chain: TLQKKIEEIAAKYKHSVVKKCCYDGACVNNDETCEQRAARISLGPRCIKAFTECCVVASQLRANISHKDMQLGR
modifications: left off: His6, N-terminal, kept
Turning to B1, the “Gi-protein activation vs C5aR^WT” value was “strong reduction in the Gi-protein activation”.
